Results reported in publication doi:10.1101/2022.08.30.505852.
pKd: −log10 of the molar value.

Biological target: βCAT_(666-729), β-catenin residues 666-729 (human) (UniProt P35222)
Assay: ITC

Chain of βCAT_(666-729), β-catenin residues 666-729 (human) (P35222 666-729): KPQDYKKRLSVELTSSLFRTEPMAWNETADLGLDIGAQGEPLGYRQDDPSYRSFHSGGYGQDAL

- pKd: 4.17
Substance: TAZ1 domain of CBP (residues 346-440) (from UniProt Q92793 346-440) (domain or fragment)
